Data as given in patent US11788081 (STICHTING VU, dated 2023).
Non-standard residues stand in square brackets, D forms with d. *: point of attachment. FITC = O=C1OC2(c3ccc(O)cc3Oc3cc(O)ccc32)c2ccc(NC(=S)*)cc21; Nle = CCCC[C@H](N)C(=O)O; AEEA = NCCOCCOCC(=O)O

Molecular target: T1, KIX domain from the human CREB binding protein (KIX wt) (human, UniProt Q92793 587-672)
T1 construct: domain: KIX domain; Expressed as GST fusion in E. coli, GST removed by PreScission cleavage
Assay: fluorescence polarization, FITC-labeled MLL peptide, protein titrated 70 µM-0 µM
Protocol: Binding of K1-t1 and K1-t2 to mixed lineage leukemia (MLL) transcription factor was evaluated using the FITC-labeled peptide FITC-020c-[…](Nle)[…]-NH2 (SEQ ID NO: 6). This sequence is derived from MLL and will be refereed as MLL peptide throughout. A 40 nM solution of MLL peptide in 25 mM HEPES (pH 7.4), 100 mM NaCl and 2 mM TCEP was prepared. A 3-fold dilution of KIX, K1-t1 and K1-t2 was performed in 14 steps on a 384-well-plate (black, round bottom, Corning) using the same buffer. 5 μL of 40 nM MLL peptide solution was then added, and the final 20 μL solution was incubated at r.t. A final protein range of 70 μM-0 μM was used. After 1 h-incubation, fluorescence polarization was measured using a Spark 20M plate reader (Tecan) with λ(ex)=485 nm and λ(em)=525 nm. Kd were determined by applying nonlinear regression analysis of dose-response curves in GraphPad Prism software.

T1 sequence (Q92793 587-672 limits assumed): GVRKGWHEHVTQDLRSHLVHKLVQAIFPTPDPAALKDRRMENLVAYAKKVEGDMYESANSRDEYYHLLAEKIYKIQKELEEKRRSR

B1: MLL peptide FITC-O2Oc-GNILPSDI(Nle)DFVLKNTP-NH2 (peptide)
peptide: {FITC-AEEA}-GNILPSDI[Nle]DFVLKNTP-NH2
notes: Synthetic peptide made by Fmoc SPPS on Rink amide resin; Used at 10 nM final (5 uL of 40 nM in 20 uL) in the FP assay; also called mixed lineage leukemia (MLL) transcription factor derived peptide
- Kd: 0.6 µM
